Results from publication PMC9294600.

What follows are substances tested against HA-tagged p62 (SQSTM1) (UniProt Q13501) (assay: coimmunoprecipitation and immunoblot, quantified). Settings: 293T cells; 0.2 μM Baf A1 for 6 h; parent: est. 1.0; read off a plot.
“Flag-tagged dengue virus (DENV) capsid protein K76R” gave a ratio to parent of 0.22. In the case of “Flag-tagged dengue virus (DENV) capsid protein K6R”, the ratio to parent was 0.81. Work on “Flag-tagged dengue virus (DENV) capsid protein K17R” yielded a ratio to parent of 1.1.
